Laboratory results as given in publication PMC6193142.

Target: fibrillin (of fibrillin microfibrils purified from the ciliary zonule) (bovine (endogenous in ciliary zonule)) (UniProt P98133)
Assay: negative-stain TEM with single-particle 3D reconstruction; microfibrils purified from bovine ciliary zonule; 2797 repeat particles; 2-fold symmetry imposed along the microfibril axis; sub-models of bead, arm and interbead; number of chains judged from volume and from fitting domain models into the interbead density

stoichiometry N (molecules per microfibril repeat): 8
Substance: fibrillin (of fibrillin microfibrils purified from the ciliary zonule) (from UniProt P98133 25-2871) (natural protein)
